Measurements published in patent publication US20230382948A1, “DELIVERY OF ENDOTHELIAL CELL-LADEN MICROGEL ELICITS ANGIOGENESIS IN SELF-ASSEMBLING ULTRASHORT PEPTIDE HYDROGELS” (KING ABDULLAH UNIVERSITY OF SCIENCE AND TECHNOLOGY, priority 2020, published 2023).

Assays:
[1] = Transmission electron microscopy of nanofibers; assay type: physicochemical; settings: TEM
Description: TEM imaging was performed using a FEI Tecnai G2 Spirit Twin instrument with a 120 kV emission gun. One drop of diluted peptide hydrogel in water was placed on a carbon-coated copper grid that had been treated with glow discharge plasma prior to being used. The drop was kept on the grid for 10 min before being blotted using filter paper. The grid was stained with 2% uranyl acetate for 30 s to get better contrast. The grid was then rinsed in water to remove uranyl excess and dried for at least 1 day before imaging. The average diameter of the nanofibers was measure using hnageJ and Origin software from 100 fibers.

[2] = Peptide gelation study (vial inversion method); assay type: physicochemical; settings: for Time to form hydrogel: 4 mg/mL, room temperature, in the presence of PBS
Description: The preweighed (as per the required final concentration) peptide powder was dissolved in 0.9 mL of Milli-Q® water in a glass vial. The solution was vortexed for 5-10 s to obtain a clear and homogeneous solution. To this peptide solution, 0.1 mL of PBS buffer (10×, w/o Ca^2+ and Mg^2+) was added. To ensure a homogeneous distribution of buffer in the solution, the glass vial was further vortexed for 2-3 s. The glass vial was kept undisturbed on the bench, and hydrogel formation was observed using the vial inversion method, as shown in FIG. 9. The pH of the solutions of IVFK (SEQ ID NO. 1) and IVZK (SEQ ID NO. 2) was 5.57 and 5.48 at a 5 mg/mL concentration, respectively. After the addition of PBS, the pH changed to 7.7 and 7.6 for IVFK (SEQ ID NO. 1) and IVZK (SEQ ID NO. 2), respectively. The pH of the Milli-Q® water and phosphate buffer used was 6.7 and 7.4, respectively.

[3] = Rheological characterization of SUP bulk hydrogels; assay type: physicochemical
Description: The mechanical stiffness of the peptide hydrogels was analyzed using a TA Ares-G2 Rheometer equipped with parallel-plate geometries of 8 mm diameter at room temperature. The sample gap between the upper and the lower geometries was set at 1.8 mm. The hydrogels were prepared from 135 μL of peptide solution that was mixed with 15 μL of 10×PBS in an 8 mm i.d. poly(methyl methacrylate) (PMMA) casting ring and left for 1 day before measurement. The rings were kept inside Petri dishes at room temperature with water surrounding them and tightly sealed to avoid dehydration. To control the accuracy of the measurements, six replicates for each peptide hydrogel were prepared. The stiffness was analyzed through three successive tests, which were time sweep, frequency sweep, and amplitude sweep. Time sweep was first performed for 5 min with an angular frequency and a strain of 1 rad/s and 0.1%, respectively. A frequency sweep was subsequently performed on the sample for a range of angular frequency of 0.1-100 rad/s with the same strain of 0.1%. The tests were completed with the amplitude sweep by applying a gradual increase of strain […] at 1 rad/s angular frequency.

fibroblasts (HDFn) = experiment: Cell culture on microgels, HDFn; assay type: cell-based, human; settings: first 24 h of culture
Description: A 1.2×10^6 amount of cells suspended in 4 mL of complete cell culture media (300,000 cells/mL) was mixed with 200 μL of microgels by pipetting. The mix was seeded at […] in a 24-well low binding plate and kept at 37° C., 95% humidity, and 5% CO2 under rocker conditions at 30 rpm for 24 h. Then, cell-laden microgels were transferred into a tube by pipetting and spun down at 50 g for 5 min. The upper layer, containing cells not adherent to the microgels, was discarded. At this moment, cell-laden microgels were either resuspended with complete cell culture media to continue cell culture under rocker conditions or processed for staining.
The cell-laden microgels were fixed with 4% formaldehyde (v/v) in PBS and incubated for 30 min at 22° C. Later, formaldehyde was removed by centrifugation, and cell-laden microgels were washed twice with PBS in a similar way. Permeabilization buffer (6.3 mM MgCl2, 233.7 mM sucrose, 0.5% (v/v) Triton® X-100 in PBS) was kept at −20° C. and thawed just before use. […]
Proliferative cells were labeled by incubating cell-laden microgels with […] EdU in complete medium for 24 h in rocking culture at 30 rpm. […] EdU was detected following the manufacturer instructions by incubating cell-laden microgels with a Click-iT Plus reaction cocktail for 30 min at 22° C. protected from light. […]

Substance	Single-filament thickness [1]	Critical gelation concentration in bulky hydrogels [2] [wt %]	Time to form hydrogel [2] [min]	Mechanical stiffness of hydrogel, comparison ([3]; IVZK versus IVFK hydrogels, FIG. 15)	HDFn cell adhesion and morphology on microgels (fibroblasts (HDFn))	Linear viscoelastic (LVE) region of hydrogel, comparison ([3]; amplitude sweep, IVFK versus IVZK, FIGS. 18 and 19)
Ac-Ile-Val-Cha-Lys-NH2 (IVXK; HELM PEPTIDE1{[ac].I.V.[Cha].K.[am]}$$$$V2.0; SMILES CC[C@H](C)[C@H](NC(C)=O)C(=O)N[C@H](C(=O)N[C@@H](CC1CCCCC1)C(=O)N[C@@H](CCCCN)C(N)=O)C(C)C) [IVZK, self-assembling ultrashort tetrapeptide, Z = cyclohexylalanine, forms hydrogels and microgels]	around 3 nm	0.3	10	higher stiffness	cell adhesion and stretched morphology	
Ac-Ile-Val-Phe-Lys-NH2 (Ac-IVFK-NH2) [self-assembling ultrashort tetrapeptide, forms hydrogels and microgels]	around 3 nm	0.4	10		cell adhesion and stretched morphology	wider
